We go through six molecules from patent US20240336672A1.

Holding throughout (details): remark: other sources report otherwise
In assay [1] the target is SARS-CoV-2 delta plus variant RBD (SARS-CoV-2). Nature of the assay: RBD-ACE2 competition ELISA. On the set-up: unit not given beside the values. (ELISA stands for enzyme-linked immunosorbent assay.)
Assay [2] deals with T1, SARS-CoV-2 delta variant B.1.617.2/3 RBD domain (SARS-CoV-2). Nature of the assay: RBD-ACE2 competition ELISA. On the set-up: unit not given beside the values.
The target in assay [3] is T2, SARS-CoV-2 kappa variant B.1.617.1/3 RBD domain (SARS-CoV-2). The experiment in a line: RBD-ACE2 competition ELISA. Also noted: unit not given beside the values.
In assay [4] the target is T3, SARS-CoV-2 omicron variant B.1.1.529 Spike ectodomain (tri-S, HexaPro) (SARS-CoV-2), P0DTC2. Nature of the assay: tri-S/ACE2 blocking ELISA [B].
The target in assay [5] is T4, SARS-CoV-2 omicron variant B.1.1.529 RBD domain (SARS-CoV-2). Nature of the assay: ELISA. Also noted: unit not given beside the values.
Assay [6] has as its target T3, SARS-CoV-2 omicron variant B.1.1.529 …. Nature of the assay: ELISA. On the set-up: unit not given beside the values.
The target of assay [7] is SARS-CoV-2 delta plus variant RBD (SARS-CoV-2). Nature of the assay: ELISA. Also noted: unit not given beside the values.
Assay [8] addresses T1, SARS-CoV-2 delta variant B.1.617.2/3 …. The experiment in a line: ELISA. Also noted: unit not given beside the values.
The target in assay [9] is T2, SARS-CoV-2 kappa variant B.1.617.1/3 …. The experiment in a line: ELISA. Also noted: unit not given beside the values.
The target in assay [10] is SARS-CoV-2 delta plus variant RBD (SARS-CoV-2). The experiment in a line: ELISA. On the set-up: unit not given beside the values. This is another data set of the same source.
Assay [11] concerns the target T1, SARS-CoV-2 delta variant B.1.617.2/3 …. The experiment in a line: ELISA. Also noted: unit not given beside the values. This is another data set of the same source.
The target of assay [12] is T2, SARS-CoV-2 kappa variant B.1.617.1/3 …. Nature of the assay: ELISA. Also noted: unit not given beside the values. This is another data set of the same source.
In assay [13] the target is SARS-CoV-2 delta plus variant RBD (SARS-CoV-2). The experiment in a line: RBD/ACE2 blocking ELISA.
The target of assay [14] is T1, SARS-CoV-2 delta variant B.1.617.2/3 …. Nature of the assay: RBD/ACE2 blocking ELISA.
Assay [15] concerns the target T2, SARS-CoV-2 kappa variant B.1.617.1/3 …. Nature of the assay: RBD/ACE2 blocking ELISA.
Assay [16] concerns the target SARS-CoV-2 delta plus variant RBD (SARS-CoV-2). Nature of the assay: ELISA.
Assay [17] deals with T2, SARS-CoV-2 kappa variant B.1.617.1/3 …. Nature of the assay: ELISA.
The target of assay [18] is T4, SARS-CoV-2 omicron variant B.1.1.529 …. The experiment in a line: ELISA; unit from paragraph 452, none printed in the heatmap.
Assay [19] addresses SARS-CoV-2 Omicron subvariant BA.2 RBD (SARS-CoV-2). Nature of the assay: competition ELISA, biotinylated RBD to immobilized ACE2 ectodomain.
For assay [20], the target named is SARS-CoV-2 delta plus variant RBD (SARS-CoV-2). Described as above.
Assay [21] addresses T1, SARS-CoV-2 delta variant B.1.617.2/3 …. The description is as above.
For assay [22], the target named is T4, SARS-CoV-2 omicron variant B.1.1.529 …. The assay is described as above.
For assay [23], the target named is T2, SARS-CoV-2 kappa variant B.1.617.1/3 …. The description is as above.
For assay [24], the target named is T3, SARS-CoV-2 omicron variant B.1.1.529 …. The experiment in a line: competition ELISA, biotinylated tri-S to immobilized ACE2 ectodomain.
The target of assay [25] is T1, SARS-CoV-2 delta variant B.1.617.2/3 …. Nature of the assay: ELISA.

B1: Cv2.1353 (recombinant human IgG1) (antibody)
heavy: EVQLVESGGGLVQPGGSLRLSCAASGVTVSSNYMNWVRQAPGKGLEWVSVIYSGGSTFYADSVKGRFIISRDNSKNTLYLQMNSLKTEDTAVYYCARDLGPMGFDIWGQGTMVTVSSASTKGPSVFPLAPSSKSTSGGTAALGCLVKDYFPEPVTVSWNSGALTSGVHTFPAVLQSSGLYSLSSVVTVPSSSLGTQTYICNVNHKPSNTKVDKKVEPKSCDKTHTCPPCPAPELLGGPSVFLFPPKPKDTLMISRTPEVTCVVVDVSHEDPEVKFNWYVDGVEVHNAKTKPREEQYNSTYRVVSVLTVLHQDWLNGKEYKCKVSNKALPAPIEKTISKAKQPREPQVYTLPPSRDELTKNQVSLTCLVKGFYPSDIAVEWESNGQPENNYKTTPPVLDSDGSFFLYSKLTVDKSRWQQGNVFSCSVMHEALHNHYTQKSLSLSPGK
light: DIQMTQSPSFLSASVGDRVTITCRASQGISSYLAWYQQKPGKAPKLLIYAASTLQSGVPSRFSGSGSGTEFTLTISSLQPEDFATYYCQQLNSDPPVTFGPGTKVDIKRTVAAPSVFIFPPSDEQLKSGTASVVCLLNNFYPREAKVQWKVDNALQSGNSQESVTEQDSKDSTYSLSSTLTLSKADYEKHKVYACEVTHQGLSSPVTKSFNRGEC
For the molecule B1, the AUC (RBD block.) was 142 in [1], 97 in assay [2] and 112 in assay [3]. The same molecule showed an AUC of blocking in assay [4] of 4. For the same molecule, the AUC in assay [5] was 3; in assay [6], 7. In addition, the AUC (RBD bind.) in [7], in assay [8] and in assay [9] was 13 each time.

B2: ADG-2 (antibody, V domains shown)
VH: EVQLVESGGGLVKPGGSLRLSCAASGFTFSSYYMNWVRQAPGKGLEWVSSISEDGYSTYYPDSLKGRFTISRDSAKNSLYLQMNSLRADDTAVYYCARDFSGHTAWAGTGFEYWGQGTLVTVSS
VL: QSVLTQPPSVSGAPGQRITISCTGSSSNIGAGYDVHWYQQLPGTAPKLLIYGSSSRNSGVPDRFSGSKSGTSASLAITGLQAEDEADYYCQSYDSSLSVLYTFGTGTKVTVL
B2: the AUC was 3 in assay [10], 3 in assay [11] and 4 in [12]. Further, the % binding inhibition in assay [13] was determined as 80%; in assay [14], 96%; in assay [15], 95%.

B3: COV2-2130 (antibody, V domains shown)
VH: EVQLVESGGGLVKPGGSLRLSCAASGFTFRDVWMSWVRQAPGKGLEWVGRIKSKIDGGTTDYAAPVKGRFTISRDDSKNTLYLQMNSLKTEDTAVYYCTTAGSYYYDTVGPGLPEGKFDYWGQGTLVTVSS
VL: not shown
With B3, the AUC in assay [10] stood at 3; in assay [11], 3; in [12], 4. The % binding inhibition amounted to 88% in assay [13] and 77% in assay [14].

B4: Cilgavimab (antibody, V domains shown)
VH: EVQLVESGGGLVKPGGSLRLSCAASGFTFRDVWMSWVRQAPGKGLEWVGRIKSKIDGGTTDYAAPVKGRFTISRDDSKNTLYLQMNSLKTEDTAVYYCTTAGSYYYDTVGPGLPEGKFDYWGQGTLVTVSS
VL: not shown
As to B4, the OD405nm in assay [16] was 3.5; in assay [17], 3.7. Further, the EC50 in assay [18] worked out at 0.027 µg/mL.

B5: Cv2.3194 (recombinant human IgG1) (antibody)
heavy: EVQLVESGGGLIQPGGSLRLSCAASGITVTSNYMSWVRQAPGKGLEWVSVIYPGGSTFYADSVKGRFTISRDNSKNTLYLQMNSLRAEDTAVYYCARDLVVYGMDVWGQGTTVTVSSASTKGPSVFPLAPSSKSTSGGTAALGCLVKDYFPEPVTVSWNSGALTSGVHTFPAVLQSSGLYSLSSVVTVPSSSLGTQTYICNVNHKPSNTKVDKKVEPKSCDKTHTCPPCPAPELLGGPSVFLFPPKPKDTLMISRTPEVTCVVVDVSHEDPEVKFNWYVDGVEVHNAKTKPREEQYNSTYRVVSVLTVLHQDWLNGKEYKCKVSNKALPAPIEKTISKAKQPREPQVYTLPPSRDELTKNQVSLTCLVKGFYPSDIAVEWESNGQPENNYKTTPPVLDSDGSFFLYSKLTVDKSRWQQGNVFSCSVMHEALHNHYTQKSLSLSPGK
light: EIVLTQSPGTLSLSPGERATLSCRASQSVSSSYLAWYQQKPGQAPRLLIYGASSRATGIPGRFSGSGSGTDFTLTISRLEPEDFAIYYCQQGVTFGGGTKVEIKRTVAAPSVFIFPPSDEQLKSGTASVVCLLNNFYPREAKVQWKVDNALQSGNSQESVTEQDSKDSTYSLSSTLTLSKADYEKHKVYACEVTHQGLSSPVTKSFNRGEC
Turning to B5, the half-maximal inhibitory concentration (IC50) in assay [19] amounted to 2.71 µg/mL; in [20] it was 0.28 µg/mL; in [21], 0.827 µg/mL; in [22] it was 6.53 µg/mL; in assay [23], 0.469 µg/mL; in [24], 0.876 µg/mL. Further, the IC90 in assay [19] came to 29.1 µg/mL; in assay [20], 0.967 µg/mL; in assay [21], 1.31 µg/mL; in assay [22], 37.6 µg/mL; in [23], 1.1 µg/mL; in assay [24], 1.2 µg/mL. Also, the AUC (RBD block.) in [1] came out at 141; in assay [2], 102; in assay [3], 128. The AUC of blocking in assay [4] stood at 76. Further, the OD405nm in assay [16] worked out at 3.5; in [25], 3.4; in [17], 3.6. Moreover, the AUC in assay [5] amounted to 10; in assay [6], 12; in assay [10] it was 3; in [11], 3; in assay [12] it was 4. Further, the AUC (RBD bind.) in assay [7], in [8] and in assay [9] was 13 in each case. Besides, the % binding inhibition stood at 94% in [13], 94% in assay [14] and 92% in assay [15].

B6: Cv2.3235 (recombinant human IgG1) (antibody)
heavy: EVQLVESGGGLIQPGGSLRLSCAASGFTVSRNYMSWVRQAPGKGLEWVSVIYSGGSTFYADSVKGRFTISRDNSKNTLYLQMNSLRAEDTAVYYCARDGDYYGMDVWGQGTTVTVSSASTKGPSVFPLAPSSKSTSGGTAALGCLVKDYFPEPVTVSWNSGALTSGVHTFPAVLQSSGLYSLSSVVTVPSSSLGTQTYICNVNHKPSNTKVDKKVEPKSCDKTHTCPPCPAPELLGGPSVFLFPPKPKDTLMISRTPEVTCVVVDVSHEDPEVKFNWYVDGVEVHNAKTKPREEQYNSTYRVVSVLTVLHQDWLNGKEYKCKVSNKALPAPIEKTISKAKQPREPQVYTLPPSRDELTKNQVSLTCLVKGFYPSDIAVEWESNGQPENNYKTTPPVLDSDGSFFLYSKLTVDKSRWQQGNVFSCSVMHEALHNHYTQKSLSLSPGK
light: DIQMTQSPSFLSASVGDRVTITCRASQGISSFLAWYQQKPGKAPKLLIYGASTLQSGVTSRFSGSGSGTEFTLTISSLQPEDFATYYCQRLDSYPPITFGQGTRLEIKRTVAAPSVFIFPPSDEQLKSGTASVVCLLNNFYPREAKVQWKVDNALQSGNSQESVTEQDSKDSTYSLSSTLTLSKADYEKHKVYACEVTHQGLSSPVTKSFNRGEC
On to B6, for which the AUC (RBD block.) turned out to be 9 in assay [1], 71 in assay [2] and 111 in assay [3]. The molecule also gave an AUC of blocking in [4] of 0. Besides, the EC50 (read off the curve) in assay [16] was determined as 0.3 µg/mL. Also, the AUC in assay [5] and in assay [6] was 1 throughout. Also, the results for the AUC (RBD bind.) in assay [7], in assay [8] and in [9] were 6, 13 and 12, respectively.

As a reminder, the EC50 is the midpoint of the concentration-response curve. Broadly, the IC50 is the point on the concentration scale where inhibition reaches its midpoint. As a reminder, the IC90 is the concentration at which the effect reaches the 90% level. What is called EC50 (read off the curve) is the concentration at which the effect is half-maximal.
